Measurements taken from the supplement of paper PMC10567573.

B1: HSP90AB1 (parent)
chain: TLRQKAEADKNDKAVKDLVVLLFE
B2: CIB1 (parent)
chain: DLSRLVNCLTGEGEDTRLSASEMK

Variants of: B1
Test: protein stability index of a GFP-peptide fusion (GPS, HEK-293T) (PSI 1-6); higher = more stable
Conditions: c terminus: a fixed tail appended
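Also: lentivirally expressed fusions sorted by FACS into six bins by GFP to DsRed ratio, PSI derived from sequencing read proportions per bin multiplied by bin number.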

Variant | protein stability index
V15Y | 3.43
V15W | 2.64
V15Q | 2.86
A8L | 2.38
K16T | 2.99
K16S | 2.92
L21N | 3.89
L21A | 2.67
N11Q | 2.62
N11G | 3.13
N11M | 3.11
N11F | 3.09
L2Y | 2.64
L2K | 2.26
F23W | 2.56
F23H | 4.5
F23N | 4.73
L18D | 4.2
L18G | 3.69
Q4F | 2.58
Q4E | 3.39
K13G | 2.77
K13Q | 3.21

Variant | protein stability index
K13W | 1.73
K13F | 1.93
E7S | 2.67
V19K | 4.26
V19E | 5.04
L22S | 4.34
A14R | 2.62
R3L | 3.11
R3H | 2.84
D17I | 2.35
K5D | 3.88
K5Q | 4.01
A6M | 2.93
A6P | 3.29
A6T | 2.85
A6G | 2.72
K10E | 2.73
K10W | 2.52
K10F | 2.53
K10D | 3.11
K10G | 2.63
K10M | 2.65
E24R | 2.04

Variant | protein stability index
E24N | 2.44
E24G | 2.26
E24D | 2.83
E24T | 2.14
D12P | 2.49
D12F | 2.24
T1G | 3.53
T1N | 2.57
T1L | 2.3
T1C | 2.26
T1Q | 3.54
T1P | 3.57
T1R | 2.47
V20F | 2.96
V20R | 2.88
V20T | 3.48
V20Q | 4.1
V20S | 4.6
V20M | 3.77
V20E | 5.2
D9Q | 3.23
D9N | 2.51

Variants of: B2
Test: as above
Conditions: c terminus: a fixed tail appended

Variant | protein stability index
L18Y | 3.12
L18S | 3.06
L18V | 3.63
L18N | 3.75
L18R | 4.11
L18W | 2.78
L18P | 3.79
L18Q | 2.96
M23N | 3.46
M23H | 2.71
M23A | 3.76
M23F | 3.12
M23R | 2.68
M23V | 3.17
M23W | 2.81
M23D | 2.32
M23Y | 2.7
M23Q | 2.6
M23K | 4.14
M23I | 3.03
M23T | 3.14
M23C | 2.85
M23L | 3.23
A20E | 4.11
A20K | 1.61

Variant | protein stability index
A20M | 2.19
A20F | 1.8
A20V | 2.17
A20C | 2.31
A20N | 2.75
A20Q | 3.71
A20Y | 2.15
A20P | 3.15
A20W | 3.38
A20T | 1.89
A20S | 2.9
A20G | 3.69
A20D | 2.92
A20H | 2.98
S19R | 2.6
S19E | 3.61
S19C | 1.89
S19D | 3.17
S19T | 2.01
S19I | 2.62
S19F | 4.13
S19M | 2.57
S19P | 3.61
S19N | 4.35
S19A | 3.2

Variant | protein stability index
S19G | 3.56
S19W | 2.26
S19Q | 2.78
S19H | 3.01
S19Y | 2.29
E22L | 2.29
E22I | 2.83
E22R | 2.88
E22T | 3.61
E22F | 2.21
E22K | 4.44
E22M | 2.46
E22H | 2.49
E22P | 4.12
E22N | 3.54
E22S | 3.35
E22Y | 3.08
E22G | 2.81
E22C | 2.76
E22A | 3.08
K24Q | 3.31
K24Y | 2.23
K24N | 2.99
K24C | 3.03
K24A | 3.25

Variant | protein stability index
K24E | 3.9
K24H | 2.37
K24V | 2.04
K24F | 2.57
K24M | 2.45
K24W | 1.86
K24I | 1.81
K24S | 2.89
K24P | 2.67
S21M | 2.98
S21H | 3.01
S21P | 3.5
S21R | 1.9
S21L | 2.06
S21E | 4.15
S21V | 2.17
S21K | 4.3
S21T | 3.1
S21D | 3.57
S21G | 1.68
S21A | 2.1
S21C | 2.63
S21F | 2.36
S21Y | 3.14
